The source of these data is patent publication US8835119B2, “Lectin pathway deficiency assay” (Euro Diagnostica AB, priority 2002, dated 2014).

The target in test [1] is T1, C1q (Homo sapiens, UniProt P02745+P02746+P02747). Details: Human C1q was isolated from human donor plasma exactly as described previously; from tissue; host or cells: human donor plasma. To be noted: cited from earlier work.
In test [2] the target is T1, C1q. Details: Human C1q was isolated from human donor plasma exactly as described previously; from tissue; host or cells: human donor plasma. To be noted: cited from earlier work. This is another data set of the same source.
Test [3] has as its target T1, C1q. The note with it: cited from earlier work.
In test [4] the test system is classical complement pathway. The note with it: several in vitro assays; cited from earlier work.
For test [5], the target named is T1, C1q. Briefly: C1q-dependent hemolytic assay. Further details: Human C1q was isolated from human donor plasma exactly as described previously; from tissue; host or cells: human donor plasma. It is filed as cell-based. Here is the method:
(Roos A., et al., J. Immunol. 167, 7052-7059, 2001).
For the preparation of C1q-depleted serum, undiluted normal human EDTA plasma (obtained from a donor with the MBL/AA genotype) was applied on column consisting of Biogel A5 (from Biorad) coupled to rabbit IgG anti-human C1q. The column was washed by using Veronal-buffered saline (VBS; 1.8 mM Na-5,5-diethylbarbital, 0.2 mM 5,5-diethylbarbituric acid, 145 mM NaCl) containing 10 mM EDTA. Fractions were tested in a C1q-dependent hemolytic assay in the absence or presence of purified C1q. […] After recalcification, C1q-depleted serum was stored at −80° C.

Test [6] relates to classical pathway (CP) of complement. Description: Classical pathway ELISA: complement activation by NHS on immobilized IgM. It is filed as biochemical, human. The note with it: FIG. 3C; C1q-depleted NHS 1/400, purified C1q 0.5 μg/ml. The protocol: Anti-C1q antibodies were tested for their ability to inhibit the CP of complement by using immobilized IgM as a specific activator of the CP. […] These antibodies were tested for their effect on complement activation induced by immobilized mannan.
As a ligand for CP activation, human IgM was coated at 2 μg/ml. After blocking of residual binding sites, serum samples, diluted in GVB++, were added to the plate and incubated for 1 hour at 37° C.
The complement activation cascade was further studied by using mAb to detect binding of specific complement components upon their activation via the CP and the LP, respectively. […] Therefore, addition of mAb 2004 to serum allows the specific detection of LP activation by using mannan as ligand without any interference of the CP.
A general note: In an ELISA, binding on a coated surface is turned into a signal by an enzyme label.

Test [7] has as its system lectin pathway (LP) of complement. Description: Lectin pathway ELISA: complement activation by NHS on immobilized mannan. It is filed as biochemical, human. To be noted: FIG. 3C; C1q-depleted NHS 1/400, purified C1q 0.5 μg/ml. The protocol: Functional activity of the lectin pathway was assessed with ELISA by using immobilized mannan as a ligand. Mannan was obtained from Sigma from Saccharomyces cerevisiae; M7504), dissolved in PBS (10 mg/ml) and stored at −20° C. Nunc Maxisorb plates (Nunc, Roskilde, Denmark) were coated with mannan (100 μg/ml) in coating buffer (100 mM Na2CO3/NaHCO3, pH 9.6) for 16 hours at room temperature or for 2 hours at 37° C. After each step, the plates were washed three times with PBS containing 0.05% Tween 20. Residual binding sites were blocked by incubation for one hour at 37° C. with PBS containing 1% BSA. […] This mixture was pre-incubated for 15 minutes on ice, before addition to the plates. […] Complement binding was detected by using mouse mAb conjugated to digoxygenin (dig) by using digoxygenin-3-O-methylcarbonyl-ε-aminocaproic acid-N-hydroxysuccinimide ester (from Boehringer Mannheim, Mannheim, Germany) according to instructions provided by the manufacturer. […] Binding of mAb was detected by using dig-conjugated sheep anti-mouse antibodies (Fab fragments) followed by HRP-conjugated sheep anti-dig antibodies (Fab fragments, both from Boehringer Mannheim). […] Enzyme activity of HRP was detected following incubation at room temperature for 30-60 min with 2,2′-azino-bis(3-ethylbenzthiazoline-6-sulfonic acid) (from Sigma; 2.5 mg/ml in 0.1 M citrate/Na2HPO4 buffer, pH 4.2) in the presence of 0.01% H2O2. […]

The subject of test [8] is alternative pathway (AP) of complement. The note with it: NHS in calcium-free buffer (GVB/MgEGTA).
Experimental: As a ligand for AP activation, LPS was coated at 10 μg/ml. LPS from Salmonella typhosa was obtained from Sigma (L-6386), dissolved in PBS at 1.6 mg/ml and stored at −20° C. Plates were blocked by using 1% BSA in PBS. Serum samples were diluted in GVB/MgEGTA (VBS containing 10 mM EGTA, 5 mM MgCl2, 0.05% Tween-20, and 0.1% gelatin; pH 7.5) and incubated in the plate for 1 hour at 37° C. Complement binding was assessed by using dig-conjugated mAb directed against C4 and C3 followed by the detection of mAb binding by using HRP-conjugated sheep anti-dig antibodies.
In order to enable the detection of all complement activation pathways in one assay system, the activation of the alternative pathway in an ELISA system was also studied. […] Therefore, a calcium-free buffer was used, thus excluding involvement of the CP and the LP.

T1 sequence (P02745 23-245): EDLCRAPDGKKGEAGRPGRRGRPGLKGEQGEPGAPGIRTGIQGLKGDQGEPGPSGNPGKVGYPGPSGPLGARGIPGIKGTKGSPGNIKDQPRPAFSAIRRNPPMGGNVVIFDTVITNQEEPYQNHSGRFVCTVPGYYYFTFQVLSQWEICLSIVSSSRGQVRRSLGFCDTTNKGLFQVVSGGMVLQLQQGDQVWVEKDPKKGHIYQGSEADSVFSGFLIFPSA
T1 sequence (P02746 28-253): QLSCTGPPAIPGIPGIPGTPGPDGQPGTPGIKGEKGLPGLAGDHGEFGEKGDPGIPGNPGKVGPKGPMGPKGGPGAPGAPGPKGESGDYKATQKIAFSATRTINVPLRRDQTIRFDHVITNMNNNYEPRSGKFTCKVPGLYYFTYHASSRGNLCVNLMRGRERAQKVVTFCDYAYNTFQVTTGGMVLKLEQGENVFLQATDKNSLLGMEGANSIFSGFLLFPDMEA
T1 sequence (P02747 29-245): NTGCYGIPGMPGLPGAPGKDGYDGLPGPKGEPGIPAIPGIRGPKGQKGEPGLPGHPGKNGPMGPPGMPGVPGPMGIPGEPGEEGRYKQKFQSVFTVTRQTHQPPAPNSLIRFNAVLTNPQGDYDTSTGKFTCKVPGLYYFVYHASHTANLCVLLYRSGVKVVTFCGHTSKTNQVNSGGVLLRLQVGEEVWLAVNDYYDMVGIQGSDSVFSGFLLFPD

On to CEGPFGPRHDLTFCW [Peptide 2J], for which the “Inhibition of binding of C1q to IgG” value in the test with C1q [1] is “inhibits”. Further, in the test with C1q [2], the “Inhibition of C1q-dependent hemolysis / C1q hemolytic function” value was “strong inhibitor”. The “Mechanism of C1 inhibition” value with C1q [3] was “Binds C1q head, inhibits”. In the case of human neutrophil peptide-1 [HNP-1], the “Mechanism of C1 inhibition” value in the test with C1q [3] was “Binds C1q tail and inhibits”. Turning to VQVHNAKTKPR, in test [4], the “Inhibition of activation of the classical complement pathway” value is “able to inhibit”. For the molecule “C1 inhibitor: plasma serine protease inhibitor”, the “Mechanism of C1 inhibition” value with C1q [3] is “Inhibits C1r and C1s activity”.

Regarding “purified C1q: human C1q isolated from human donor plasma”, the “Restoration of lysis of antibody-coated erythrocytes induced by C1q-depleted human serum” value with C1q [5] is listed as “completely restore”. In test [6], the “C4 activation by IgM after reconstitution of C1q-depleted serum” value was “complete restoration”. Also, the “C4 activation by mannan after addition to C1q-depleted serum” value in test [7] is given as “slightly inhibited”. In the case of AEAKAKA, the “Mechanism of C1 inhibition” value in the test with C1q [3] is given as “Inhibits C1q ligand binding”. In test [4], the “Inhibition of activation of the classical complement pathway” value is on record as “able to inhibit”. Regarding LEQGENVFLQATLL [Peptide CBP2], in the test with C1q [3], the “Mechanism of C1 inhibition” value was “Acts as a competitor for C1q”. Consider KDIRCKDD, for which the “Mechanism of C1 inhibition” value with C1q [3] is “Inhibits C1q ligand binding”. In the case of “Surfactant protein A: collectin present in the lung”, the “Mechanism of C1 inhibition” value with C1q [3] is reported as “Inhibits C1q ligand binding”. Consider `O=C(O)CN(CCN(CC(=O)O)CC(=O)O)CC(=O)O` [EDTA], for which, in test [8], the “Detection of C3 when present in the complement source” value is on record as “reduced until background levels”.

B1: Decorin: dermatan sulfate proteoglycan, a constituent of the extracellular matrix (protein, UniProt P07585 31-359, looked up)
Decorin: DEASGIGPEVPDDRDFEPSLGPVCPFRCQCHLRVVQCSDLGLDKVPKDLPPDTTLLDLQNNKITEIKDGDFKNLKNLHALILVNNKISKVSPGAFTPLVKLERLYLSKNQLKELPEKMPKTLQELRAHENEITKVRKVTFNGLNQMIVIELGTNPLKSSGIENGAFQGMKKLSYIRIADTNITSIPQGLPPSLTELHLDGNKISRVDAASLKGLNNLAKLGLSFNSISAVDNGSLANTPHLRELHLDNNKLTRVPGGLAEHKYIQVVYLHNNNISVVGSSDFCPPGHNTKKASYSGVSLFSNPVQYWEIQPSTFRCVYVRSAIQLGNYK
As to B1, the “Mechanism of C1 inhibition” value with C1q [3] was “Binds to C1q head”.

B2: gC1qR: globular C1q receptor, binds specifically to the globular head of C1q (protein, UniProt Q07021 74-282, looked up)
Complement component 1 Q …: LHTDGDKAFVDFLSDEIKEERKIQKHKTLPKMSGGWELELNGTEAKLVRKVAGEKITVTFNINNSIPPTFDGEEEPSQGQKVEEQEPELTSTPNFVVEVIKNDDGKKALVLDCHYPEDEVGQEDEAESDIFSIREVSFQSTGESEWKDTNYTLNTDSLDWALYDHLMDFLADRGVDNTFADELVELSTALEHQEYITFLEDLKSFVKSQ
Take B2: the “Mechanism of C1 inhibition” value with C1q [3] is given as “Binds C1q head”.

B3: Calreticulin (protein, UniProt P27797 18-417, looked up)
Calreticulin: EPAVYFKEQFLDGDGWTSRWIESKHKSDFGKFVLSSGKFYGDEEKDKGLQTSQDARFYALSASFEPFSNKGQTLVVQFTVKHEQNIDCGGGYVKLFPNSLDQTDMHGDSEYNIMFGPDICGPGTKKVHVIFNYKGKNVLINKDIRCKDDEFTHLYTLIVRPDNTYEVKIDNSQVESGSLEDDWDFLPPKKIKDPDASKPEDWDERAKIDDPTDSKPEDWDKPEHIPDPDAKKPEDWDEEMDGEWEPPVIQNPEYKGEWKPRQIDNPDYKGTWIHPEIDNPEYSPDPSIYAYDNFGVLGLDLWQVKSGTIFDNFLITNDEAYAEEFGNETWGVTKAAEKQMKDKQDEEQRLKEEEEDKKRKEEEEAEDKEDDEDKDEDEEDEEDKEEDEEEDVPGQAKDEL
Take B3: in the test with C1q [2], the “Inhibition of C1q-dependent hemolysis / C1q hemolytic function” value was “inhibit”.
